Where no end group is shown, it is not given here.
B1: MAP7 microtubule-binding domain (MTBD), residues 59-170 (domain or fragment, human, UniProt Q14244 59-170, looked up)
chain: PVLRVDDRQRLARERREEREKQLAAREIVWLEREERARQHYEKHLEERKKRLEEQRQKEERRRAAVEEKRRQRLEEDKERHEAVVRRTMERSQKPKQKHNRWSWGGSLHGSP
notes: Uniformly [13C-15N] labelled in the NMR experiments; The deposited model PDB 8RC1 holds only a poly-alanine backbone of residues 63-151; also called MAP7 MTBD; MT-associated protein 7 MTBD; not shown: His-Tag, N-terminal, cleaved
B2: NHS-fluorescein-labelled α-tubulin C-terminal tail peptide (peptide)
peptide: SVEGEGEEEGEEY
modifications: also: NHS-fluorescein attached, position not given here
notes: C-terminal tail of HeLa S3 α-tubulin, residues Ser 439-Tyr 451; also called fluorescein labelled α-CTT; NHS-fluorescein-labelled α-CTT; source: synthetic peptide, bought: Sigma-Aldrich; labelled with NHS-fluorescein and dialysed

What was measured:
[1] = molecular target: T1, microtubules polymerised from porcine brain α/β-tubulin (porcine, UniProt P02550 1-451; P02554 1-445); assay: ITC; 150 µM MAP7 MTBD titrated in 2 µL steps to 164 µL of 15 µM Taxol-stabilized MT; 37 °C; NMR buffer (40 mM NaPi pH 6.5, 150 mM NaCl) with 1 mM β-ME and 1 mM GTP; duplicates; conditions: both partners purified
T1 construct: α-tubulin of porcine brain tubulin; β-tubulin of porcine brain tubulin; Polymer of α/β-tubulin heterodimers (13 or 14 protofilaments in cryo-EM); Brain tubulin is a mixture of isotypes; For ITC and NMR samples the methods say only 'lyophilized tubulin (Cytoskeleton)' without species; also called MTs; MT; source: bought: Cytoskeleton (porcine brain tubulin, Cat No. T240; lyophilized tubulin), …

[2] = molecular target: B1; assay: fluorescence polarisation; fluorescence anisotropy; 1 µM NHS-fluorescein-labelled α-CTT, MAP7 MTBD 200 to 0 µM, 384-well plate; 40 mM NaPi pH 6.5, 150 mM NaCl, 1 mM DTT; fit with DynaFit; conditions: both partners purified

T1 sequence (P02550 whole entry, chain 1 of 2): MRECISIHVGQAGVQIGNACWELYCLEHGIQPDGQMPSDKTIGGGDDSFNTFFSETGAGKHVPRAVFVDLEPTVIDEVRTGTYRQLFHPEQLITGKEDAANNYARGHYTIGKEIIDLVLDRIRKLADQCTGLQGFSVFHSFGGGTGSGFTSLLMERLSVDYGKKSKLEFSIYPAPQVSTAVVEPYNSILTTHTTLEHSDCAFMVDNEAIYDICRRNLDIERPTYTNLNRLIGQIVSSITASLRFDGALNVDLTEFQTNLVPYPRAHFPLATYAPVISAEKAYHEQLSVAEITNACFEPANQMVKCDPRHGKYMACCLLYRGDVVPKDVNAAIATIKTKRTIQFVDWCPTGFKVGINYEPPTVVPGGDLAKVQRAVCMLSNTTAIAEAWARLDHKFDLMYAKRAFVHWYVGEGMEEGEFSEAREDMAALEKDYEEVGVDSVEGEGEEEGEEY
T1 sequence (P02554 whole entry, chain 2 of 2): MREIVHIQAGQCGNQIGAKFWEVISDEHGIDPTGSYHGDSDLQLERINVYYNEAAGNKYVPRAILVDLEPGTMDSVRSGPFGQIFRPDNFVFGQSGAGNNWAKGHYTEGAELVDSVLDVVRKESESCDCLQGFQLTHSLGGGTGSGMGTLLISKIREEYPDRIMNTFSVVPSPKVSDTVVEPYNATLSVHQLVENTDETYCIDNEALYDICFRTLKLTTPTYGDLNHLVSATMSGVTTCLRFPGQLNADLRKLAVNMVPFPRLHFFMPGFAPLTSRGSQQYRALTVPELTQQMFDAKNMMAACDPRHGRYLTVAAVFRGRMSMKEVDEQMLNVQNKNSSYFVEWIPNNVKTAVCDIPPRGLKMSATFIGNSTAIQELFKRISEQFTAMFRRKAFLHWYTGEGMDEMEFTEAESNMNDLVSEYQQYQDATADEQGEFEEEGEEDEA

B1
Kd [1]: 940 nM | stoichiometry N [1]: 0.51 ± 0.09

B2
Kd [2]: 91.3 µM
